Measured values reported in patent US20190225665A1 (Stanford University, published 2019).

B1: IL-10Rβ (monomer) (receptor, human, UniProt Q08334 20-220, looked up)
chain: MVPPPENVRMNSVNFKNILQWESPAFAKGNLTFTAQYLSYRIFQDKCMNTTLTECDFSSLSKYGDHTLRVRAEFADEHSDWVNITFCPVDDTIIGPPGMQVEVLADSLHMRFLAPKIENEYETWTMKNVYNSWTYNVQYWKNGTDEKFQITPQYDFEVLRNLEPWTTYCVQVRGFLPDRNKAGEWSEPVCEQTTHDETVPS
notes: Soluble receptor expressed in Hi5 insect cells; also called IL-10 Receptor Beta; IL-10R2

Tests used:
[1] = target: T1, wild-type IFN-λ3/IFN-λR1 binary complex (human, UniProt Q8IU57 21-228, limits assumed); assay: surface plasmon resonance, equilibrium fit; binary complex on the sensor chip, IL-10Rβ as analyte up to 100 uM
T1 construct: Complex of m1 and m3; In SPR it was the immobilized binary complex; also called IFN-λ/IFN-λR1 binary complex; wild-type IFN-λR1/IFN-λ3
T1 sequence 1: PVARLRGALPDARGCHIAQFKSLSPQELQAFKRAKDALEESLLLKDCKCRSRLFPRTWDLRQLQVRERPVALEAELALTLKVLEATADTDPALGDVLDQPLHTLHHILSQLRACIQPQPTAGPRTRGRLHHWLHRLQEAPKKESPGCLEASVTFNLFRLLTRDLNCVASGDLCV
T1 sequence 2: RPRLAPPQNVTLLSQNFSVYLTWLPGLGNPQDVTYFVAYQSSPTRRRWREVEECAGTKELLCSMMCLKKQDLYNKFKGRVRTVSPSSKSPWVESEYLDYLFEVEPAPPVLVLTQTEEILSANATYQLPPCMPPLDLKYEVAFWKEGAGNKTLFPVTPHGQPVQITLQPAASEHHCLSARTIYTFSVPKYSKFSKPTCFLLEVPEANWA
Method: (§1) KD values were determined by fitting to a first order equilibrium binding model.
(§2) Surface plasmon resonance. GE Biacore T100 was used to measure the KD by either kinetic (type I IFNs) or equilibrium (type III IFNs) methods. Approximately 100 RU of each of the receptors of were captured on a Biotin CAP-chip (GE) including a reference channel of an unrelated cytokine receptor (IL-2Rβ).

[2] = target: T2, H11/IFN-λR1 binary complex (human, UniProt Q8IU57 21-228, limits assumed); assay: SPR, equilibrium fit, immobilized binary complexes
T2 construct: Complex of m2 and m3, immobilized for SPR; also called IFN-λ3 H11/IFN-λR1 binary complex; H11-containing binary complex
T2 sequence 1: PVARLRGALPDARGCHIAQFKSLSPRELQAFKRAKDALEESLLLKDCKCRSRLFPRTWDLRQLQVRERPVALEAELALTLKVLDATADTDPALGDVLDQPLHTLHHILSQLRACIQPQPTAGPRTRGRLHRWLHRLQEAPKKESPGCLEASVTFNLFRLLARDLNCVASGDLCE
T2 sequence 2: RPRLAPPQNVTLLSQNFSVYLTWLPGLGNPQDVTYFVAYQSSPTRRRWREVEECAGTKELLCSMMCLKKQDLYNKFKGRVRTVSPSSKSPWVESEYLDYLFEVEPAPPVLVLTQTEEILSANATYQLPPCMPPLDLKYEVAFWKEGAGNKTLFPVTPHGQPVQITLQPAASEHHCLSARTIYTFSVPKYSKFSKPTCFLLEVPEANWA
Method: as §1, §2

[3] = target: T2, H11/IFN-λR1 binary complex; assay: SPR, equilibrium fit, immobilized H11/IFN-λR1 binary complex; SPR; IL-10Rβ over the immobilized H11/IFN-λR1 binary complex
Method: as §1, §2

[4] = target: T3, IFNλR1/IFNAR1 receptor dimer (on Hap1 cells) (UniProt Q8IU57 21-520; P17181 28-557, limits assumed); assay: cell-based or functional assay
T3 sequence (looked up) 1: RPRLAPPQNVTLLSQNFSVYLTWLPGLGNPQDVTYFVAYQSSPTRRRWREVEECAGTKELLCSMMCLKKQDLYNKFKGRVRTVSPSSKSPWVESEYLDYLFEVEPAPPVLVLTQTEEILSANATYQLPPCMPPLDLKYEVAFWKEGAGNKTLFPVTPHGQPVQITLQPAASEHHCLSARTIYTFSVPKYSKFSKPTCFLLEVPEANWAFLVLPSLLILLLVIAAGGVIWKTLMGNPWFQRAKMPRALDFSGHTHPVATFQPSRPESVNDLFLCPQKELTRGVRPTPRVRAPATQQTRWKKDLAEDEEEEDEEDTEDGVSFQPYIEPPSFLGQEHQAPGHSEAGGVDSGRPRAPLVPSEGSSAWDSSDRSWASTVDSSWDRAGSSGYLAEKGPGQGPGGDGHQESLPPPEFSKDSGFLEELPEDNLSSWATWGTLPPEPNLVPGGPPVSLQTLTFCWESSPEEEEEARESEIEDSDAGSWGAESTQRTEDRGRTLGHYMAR
T3 sequence (looked up) 2: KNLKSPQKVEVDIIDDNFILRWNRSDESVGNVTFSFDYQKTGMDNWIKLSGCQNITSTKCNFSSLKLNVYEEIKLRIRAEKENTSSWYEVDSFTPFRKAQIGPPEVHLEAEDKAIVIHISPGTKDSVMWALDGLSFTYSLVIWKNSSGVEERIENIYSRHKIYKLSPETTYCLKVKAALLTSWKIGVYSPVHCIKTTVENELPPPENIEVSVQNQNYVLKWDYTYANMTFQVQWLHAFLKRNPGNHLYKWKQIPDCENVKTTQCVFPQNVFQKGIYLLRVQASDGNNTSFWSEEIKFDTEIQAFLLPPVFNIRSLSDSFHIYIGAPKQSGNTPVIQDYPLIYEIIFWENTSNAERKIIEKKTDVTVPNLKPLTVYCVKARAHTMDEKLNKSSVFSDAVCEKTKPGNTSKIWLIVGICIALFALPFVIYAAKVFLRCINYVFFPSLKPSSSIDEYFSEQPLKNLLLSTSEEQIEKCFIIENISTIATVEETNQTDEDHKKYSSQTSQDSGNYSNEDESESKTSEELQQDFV

[5] = target: T4, IFN-λR1 (human, UniProt Q8IU57 21-228, limits assumed); assay: SPR, equilibrium fit; wild-type IFN-λ3 binding IFN-λR1
T4 construct: Soluble receptor expressed in Hi5 insect cells; It was captured on a Biotin CAP chip for SPR and used as streptavidin tetramers or soluble protein in the yeast assays; For crystallography it was expressed in HEK293 GnTI- cells and deglycosylated with EndoF and EndoH; also called IL-28RA; IFNλ Receptor 1
T4 sequence (looked up): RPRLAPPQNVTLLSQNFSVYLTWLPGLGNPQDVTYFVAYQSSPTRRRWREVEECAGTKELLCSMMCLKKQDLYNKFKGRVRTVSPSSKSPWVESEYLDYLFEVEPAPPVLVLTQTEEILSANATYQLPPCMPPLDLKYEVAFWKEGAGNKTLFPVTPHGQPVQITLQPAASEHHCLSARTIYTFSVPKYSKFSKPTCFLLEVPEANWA
Method: as §1, §2

[6] = target: T4, IFN-λR1; assay: yeast surface display titration with IFN-λR1, flow cytometry (FIG. 7B legend gives KD=400 nM)
[7] = target: T5, IL-10Rβ streptavidin tetramers (human, UniProt Q08334 20-220; P22629 37-163); assay: flow cytometry of yeast displaying IFN-λ3, no IFN-λR1 present
T5 construct: Same receptor as m4, multimerised on streptavidin for staining of yeast; also called avidity-enhanced tetrameric form of IL-10Rβ; IL-10Rβ tetramer
T5 sequence (P22629 37-163, one chain of several): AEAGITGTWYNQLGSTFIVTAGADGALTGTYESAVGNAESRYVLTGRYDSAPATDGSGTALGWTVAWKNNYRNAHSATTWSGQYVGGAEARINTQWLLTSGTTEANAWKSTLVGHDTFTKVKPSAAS
Method: as §1
(§3) We used yeast surface display as a platform for engineering a higher affinity IFN-λ.

[8] = target: B1; assay: as above
Method: as §1, §3

[9] = target: B1; assay: yeast-surface titration with IL-10Rβ (affinity maturation was done with soluble IFN-λR1 bound to the displayed cytokine); on-yeast titration, H11 displayed on yeast; presence of IFN-λR1 not stated for the titration
[10] = target: T4, IFN-λR1; assay: SPR, equilibrium fit; H11 (carries Thr150Ala) binding IFN-λR1
Method: as §1, §2

[11] = target: T4, IFN-λR1; assay: SPR, equilibrium fit
Method: as §1, §2

[12] = target: T6, heterodimeric receptor composed of IL-10Rβ and IFN-λR1 (on cells) (human, UniProt Q8IU57 21-520; Q08334 20-325); assay: cell-based or functional assay
T6 sequence (looked up) 1: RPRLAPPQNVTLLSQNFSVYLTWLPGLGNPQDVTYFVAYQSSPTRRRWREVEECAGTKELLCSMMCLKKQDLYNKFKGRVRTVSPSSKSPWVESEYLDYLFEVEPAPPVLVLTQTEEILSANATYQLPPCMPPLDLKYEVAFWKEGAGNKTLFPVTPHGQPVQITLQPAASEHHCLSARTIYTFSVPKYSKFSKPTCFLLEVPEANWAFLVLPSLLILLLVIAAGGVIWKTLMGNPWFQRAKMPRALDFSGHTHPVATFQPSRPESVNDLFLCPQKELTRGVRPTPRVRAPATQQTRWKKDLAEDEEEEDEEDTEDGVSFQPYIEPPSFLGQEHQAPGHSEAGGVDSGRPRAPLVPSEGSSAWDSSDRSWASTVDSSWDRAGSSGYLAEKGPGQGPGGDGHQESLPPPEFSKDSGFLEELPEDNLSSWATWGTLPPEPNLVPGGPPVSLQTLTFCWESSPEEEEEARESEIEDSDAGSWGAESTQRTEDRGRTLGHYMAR
T6 sequence (looked up) 2: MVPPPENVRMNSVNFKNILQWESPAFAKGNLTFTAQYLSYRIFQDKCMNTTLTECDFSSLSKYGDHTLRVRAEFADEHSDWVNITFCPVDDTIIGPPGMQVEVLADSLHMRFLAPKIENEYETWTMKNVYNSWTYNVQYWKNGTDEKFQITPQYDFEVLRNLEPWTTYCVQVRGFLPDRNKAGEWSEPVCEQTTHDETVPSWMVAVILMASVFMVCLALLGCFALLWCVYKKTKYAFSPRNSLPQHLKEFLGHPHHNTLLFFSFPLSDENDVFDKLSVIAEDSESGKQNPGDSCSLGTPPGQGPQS

B1 was tested. Which Kd [1] did it give?
The Kd was 16000 nM.

And the “fold increase in IL-10Rβ affinity against the wild-type IFN-λ3/IFN-λR1 binary complex” value [2]?
Its value is 30 fold.

What about the Kd [3] of the same binder?
The Kd was 560 nM.

B2: Synthekine 2 (designed binder)
chain: ARGCHIAQFKSLSPAELQAFKRAKDALEESLLLKDCKCRSRLFPRTWDLRQLQVRERPVALEAELALTLKVLEATADTDPALGDVLDAPLATLHHILSQLRACIQPQPTAGPRTRGRLHRWLHRLQEAPKKESPGCLEASVTFNLFRLLARDLNCVASGDLCEGSGSGLGCDLPQNHGLLSANTLVLLHQMRRISPFLCAKDARDFRFPQEMVKGSQLQKAHVMSVLHEMLQQIFSLFHTERSSAAWNMTLLDQLHTGLHQQLQHLETCLLQVVGEGESAGAISSPALTLRRYFQGIRVYLKEKKYSDCAWEVVRMEIMASLFLSTNMQERLRSKDRDLGSSAAAHHHHHH
How did the “Emax of phospho-STAT1 activation in Hap1 cells” value [4] turn out when B2 was run?
Its value is 2 fold of the signal induced by type III IFNs.

B3: wild-type IFN-λ3 (ligand)
chain: PVARLRGALPDARGCHIAQFKSLSPQELQAFKRAKDALEESLLLKDCKCRSRLFPRTWDLRQLQVRERPVALEAELALTLKVLEATADTDPALGDVLDQPLHTLHHILSQLRACIQPQPTAGPRTRGRLHHWLHRLQEAPKKESPGCLEASVTFNLFRLLTRDLNCVASGDLCV
notes: For SPR it was expressed in Hi5 insect cells; also called IL-28B; IFN-λ3 wt
For B3, which Kd [5] is on record?
Its Kd is 850 nM.

What about the Kd [6] of the same binder?
Its Kd is ~400 nM.

Does B3 bind [7]?
Result: no binding

Does B3 bind [8]?
Result: no binding

B4: IFN-λ3 H11 (ligand)
chain: PVARLRGALPDARGCHIAQFKSLSPRELQAFKRAKDALEESLLLKDCKCRSRLFPRTWDLRQLQVRERPVALEAELALTLKVLDATADTDPALGDVLDQPLHTLHHILSQLRACIQPQPTAGPRTRGRLHRWLHRLQEAPKKESPGCLEASVTFNLFRLLARDLNCVASGDLCE
notes: also called engineered IFN-λ3 H11
With B4 as the binder, how does the Kd [9] read?
The Kd was 200 nM.

What about the Kd [10] of the same binder?
Its Kd is 150 nM.

What about the “fold higher affinity against wild-type IFN-λ3” value [11] of the same binder?
Its value is ~5 fold.

What about the “EC50 for phospho-Stat1 on Hap1 cells, fold improvement over wild-type IFN-λ3” value [12] of the same binder?
The value was 100 fold.

And the “anti-viral potency on Huh7.5 cells infected with HCV, fold over wild-type IFN-λ3” value [12]?
Its value is 12 fold.
